Data from patent US20230220053A1 (published 2023).

Experiments:
[1] = biological target: S1-Fc (SARS-CoV-2 S1 protein, Fc fusion) (SARS-CoV-2, UniProt P0DTC2 16-685); test: SPR (Biacore T200), S1 captured on anti-human Fc chip, scFv injected
[2] = biological target: S1 protein of SARS-CoV-2 (recombinant, construct not stated) (SARS-CoV-2, UniProt P0DTC2 16-685); test: ELISA, S1 coated, scFv titrated, anti-Flag HRP
[3] = biological target: T1, RBD of SARS-CoV-2 spike protein S1 (recombinant, construct not stated) (SARS-CoV-2, UniProt P0DTC2 328-533); test: ELISA, RBD coated, scFv titrated, anti-Flag HRP
T1 construct: also called SARS-COV-2, RBD; RBD-AF647

[4] = biological target: T2, SARS-CoV-2-RBD (328-533)-Fc (SARS-CoV-2); test: SPR (Biacore T200), RBD captured on anti-human Fc chip, scFv injected
T2 construct: also called RBD-Fc

B1: 2020EP64-C08 scFv (scFv)
scFv: QMQLVQSGAEVKKPGSSVKVSCKASGGTFSSYAISWVRQAPRQGLEWMGRIIPILGIANYAQKFQGRVTITADKSTSTAYMELSSLRSEDTAVYYCASSYGGNQLWGQGTLVTVSSGGGGSGGGGSGGGGSQSVLTQPPSASGTPGQRVTISCSGSDSNIGTNTVNWYQQVPGTAPKVLIYSTHQRPSGVPDRFSASKSGTSASLAISGLQSEDEADYYCSSWDVSLNAWVFGGGTKVTVL
[1]
  Kd: 73.6 nM
  koff: 0.00693 s⁻¹
  kon: 94100 M⁻¹ s⁻¹
[2]
  EC50: 40.2 nM
[3]
  EC50: 8.73 nM

B2: 2020EP66-A07 scFv (scFv)
scFv: EVQLVQSGAEVKKPGSSVKVSCKASGGTFSSYAISWVRQAPGQGLEWMGGIIPIFGTANYAQKFQGRVTITADESTSTAYMELSSLRSEDTAVYYCASGGDGYNYDYYYYGMDVWGQGTTVTVSSGGGGSGGGGSGGGGSSYELTQPPSVSVSPGQTATITCSGEKLGDKYSFWYQQKPGQSPVMVMYQDDQRPSGTPERFSGSNSGNTATLTISGTRATDEADYYCQAWDNSASVFGSGTKLTVL
[1]
  Kd: 2.3 nM
  koff: 0.00142 s⁻¹
  kon: 614000 M⁻¹ s⁻¹
[2]
  EC50: 0.525 nM
[3]
  binding result: no binding (tested: 200 nM (highest concentration tested))

B3: 2020EP71-E04 scFv (scFv)
scFv: QVQLVQSGGGVVQPGRSLRLSCAASGFTFSSYGMHWVRQAPGKGLEWVAVISYDGSNKYYADSVKGRFTISRDNSKNTLYLQMNSLRAEDTAVYYCAKDRAYYYGYYYYYYGMDVWGQGTTVTVSSGGGGSGGGGSGGGGSQSVLTQPPSVSGAPGQRVTISCTGSSSNIGAGYDVHWYQQLPGTAPKLLIYGNSNRPSGVPDRFSGSKSGTSASLAITGLQAEDEADYYCATWDDSLSGPVFGGGTKVTVL
[1]
  Kd: 37.6 nM
  koff: 0.0019 s⁻¹
  kon: 50600 M⁻¹ s⁻¹
[2]
  EC50: 5.03 nM
[3]
  binding result: no binding (tested: 200 nM (highest concentration tested))

B4: 2020EP75-E02 scFv (scFv)
scFv: QMQLVQSGAEVKKPGSSVKVSCKASGGTFSSYAISWVRQAPGQGLEWMGGIIPIFGTANYAQKFQGRVTITADKSTSTAYMELSSLRSEDTAVYYCARPRDYRAQYYFDYWGQGTLVTVSSGGGGSGGGGSGGGGSDIVMTQSPSSLSASVGDRVTITCRAGQDIDTSVNWYQLKPGKAPRLLIYASSSLQTGVPSRFSGGGSGAEFTLTISSLQPEDFATYFCQQTFSTSVTFGGGTKVEIK
[1]
  Kd: 4.46 nM
  koff: 0.00174 s⁻¹
  kon: 390000 M⁻¹ s⁻¹
[2]
  EC50: 0.225 nM
[3]
  binding result: no binding (tested: 200 nM (highest concentration tested))

B5: 2020EP54-B02 scFv (scFv)
scFv: QVQLVQSGAEVKKPGASVKVSCKASGYTFIGYYMHWMRQAPGQGLEWMGRINPNSGGTNYAEKFQGRVTMTRDTSISTAYMELSRLTFNDTAVYYCARWDSSSWKFDSWGQGTLVTVSSGGGGSGGGGSGGGGSEIVLTQSPSSLSASVGDRVTITCQASQDISNYLNWYQQKPGKAPKLLIYDASNLETGVPSRFSGSGSGTDFTFTISSLQPEDIATYYCQQYDNLPITFGQGTRLEIK
[4]
  Kd: 69.5 nM
  koff: 0.00242 s⁻¹
  kon: 34900 M⁻¹ s⁻¹
[1]
  Kd: 91.8 nM
  koff: 0.00366 s⁻¹
  kon: 39900 M⁻¹ s⁻¹
[3]
  EC50: 75.9 nM

B6: 2020EP60-A12 scFv (scFv)
scFv: EVQLVESGGGVVQPGRSLRLSCAASGFTFSSYGMHWVRQAPGKGLEWVAVISYDGSNKYYADSVKGRFTISRDNSKNTLYLQMNSLRAEDTAVYYCAKGLEYYFDYWGQGTLVTVSSGGGGSGGGGSGGGGSSYELTQPPSLSVSPGQTARITCSGDALPEQYAYWYQQKPGQAPVLVIYKDSERPSGIPERFSGSSSGTTVTLTISGVQAEDEADYYCQAWDSSTVVFGGGTKLTVL
[2]
  EC50: 27.3 nM
[3]
  EC50: 4.99 nM
